Target: LOV construct of Brucella abortus LOV-HK with the Nα helix, the LOV core and half of the Jα helix (wild type) (Brucella abortus)
Assay: SEC with static light scattering (SEC-SLS)

## LOV construct of Brucella abortus LOV-HK with the Nα helix, the LOV core and half of the Jα helix (wild type) (domain or fragment)
  stoichiometry N: 2

From article PMC8092228 (mBio, 2021)
